From patent publication US20220306744A1 (CRESCENDO BIOLOGICS, published 2022)

Molecular target: T1, human PD-1 expressed on cells (CHO TREX human PD1 cell line, full-length human PD-1 sequence) (human, UniProt Q15116 21-288)
T1 construct: Also used for human PD-1 on Jurkat reporter cells, on PathHunter cells and on PHA-stimulated human CD4+ T cells; also called CHO human PD1 cells; CHO human PD-1 cells
Test: worded summary of the screens

T1 sequence (Q15116 21-288): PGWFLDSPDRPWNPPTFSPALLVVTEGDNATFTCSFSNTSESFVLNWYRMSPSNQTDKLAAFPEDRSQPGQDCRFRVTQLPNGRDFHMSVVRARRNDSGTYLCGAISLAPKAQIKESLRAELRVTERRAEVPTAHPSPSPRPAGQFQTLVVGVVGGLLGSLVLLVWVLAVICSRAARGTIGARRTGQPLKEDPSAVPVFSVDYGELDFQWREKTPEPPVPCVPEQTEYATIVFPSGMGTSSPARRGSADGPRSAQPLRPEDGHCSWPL

Row | binding result | Binder
1 | binds | 1.58a (VHH) VHH: QVQLVESGGGLVQPGGSLRLSCAASGFTFDDYAMSWVRQAPGKGLEWVSGISWNGGSAGYADSVKDRFTISRDNAKNSLYLQMNSLRAEDTALYYCARDPHSSAWSYDAFDIWGQGTMVTVSS
2 | binds | 1.72a (VHH) VHH: EVQLVESGGGVVRPGGSLRLSCAASGFTFDDYASSWVRQAPGKGLEWVSGITWNGGSTGYADSVKGRFTISRDNAKNSLYLQMNSLRAEDTALYYCVRDKYSYAWSYDGFDIWGQGTMVTVSS
3 | binds | 1.79a (VHH) VHH: EVQLVESGGGVVRPGGSLRLSCAASGFTFDDYAMSWVRQAPGKGLEWVSGITWNGGSTGYADSVKGRFTISRDNAKNSLYLQMNSLRAEDTALYYCVRDKYSYAWSYDDFDIWGQGTMVTVSS
4 | binds | 1.67a (VHH) VHH: EVQLVESGGGVVRPGGSLRLSCAASGFTFDDYAGSWVRQAPGKGLEWVSGITWNGGSTGYADSVKGRFTISRDNAKNSLYLQMNSLRAEDTALYYCVRDKYSYAWSYDGFDIWGQGTMVTVSS
5 | binds | 1.74a (VHH) VHH: EVQLVESGGGVVRPGGSLRLSCAASGFTFDDYAMSWVRQAPGKGLEWVSGITWNSGSTGYADSVKDRFTISRDNAKNSLYLQMNSLRAEDTALYYCVRDKYSYAWSYDDFDIWGQGTMVTVSS
6 | binds | 1.65a (VHH) VHH: EVQLVESGGGVVRPGGSLRLSCAASGFTFDDYAQSWVRQAPGKGLEWVSGITWNGGSTGYADSVKGRFTISRDNAKNSLYLQMNSLRAEDTALYYCVRDKYSYAWSYDGFDIWGQGTMVTVSS
7 | binds | 1.81a (VHH) VHH: EVQLVESGGGVVRPGGSLRLSCAASGFTFDDYAMSWVRQAPGKGLEWVSGITWNRGSTGYADSVKDRFTISRDNAKNSLYLQMNSLRAEDTALYYCVRDKYSYAWSYDDFDIWGQGTMVTVSS
8 | binds | 1.87a (VHH) VHH: EVQLVESGGGVVRPGGSLRLSCAASGFTFDDYALSWVRQAPGKGLEWVSGITWNGGSTGYADSVKDRFTISRDNAKNSLYLQMNSLRAEDTALYYCVRDKYSYAWSYDGFDIWGQGTMVTVSS
9 | binds | 1.70a (VHH) VHH: EVQLVESGGGVVRPGGSLRLSCAASGFTFDDYAVSWVRQAPGKGLEWVSGITWNGGSTGYADSVKGRFTISRDNAKNSLYLQMNSLRAEDTALYYCVRDKYSYAWSYDGFDIWGQGTMVTVSS
10 | binds | 1.86a (VHH) VHH: EVQLVESGGGVVRPGGSLRLSCAASGFTFDDYASSWVRQAPGKGLEWVSGITWNGGSTGYADSVKDRFTISRDNAKNSLYLQMNSLRAEDTALYYCVRDKYSYAWSYDGFDIWGQGTMVTVSS
11 | binds | 1.60a (VHH) VHH: QVQLVESGGGVVRPGGSLRLSCAASGFTFDDYAMSWVRQAPGKGLEWVSGISWNGGSTGYADSVKDRFTISRDNAKNSLYLQMNSLRAEDTALYYCARDPYSGAWSYDAFDIWGQGTMVTVSS
12 | binds | 1.69a (VHH) VHH: EVQLVESGGGVVRPGGSLRLSCAASGFTFDDYAWSWVRQAPGKGLEWVSGITWNGGSTGYADSVKGRFTISRDNAKNSLYLQMNSLRAEDTALYYCVRDKYSYAWSYDGFDIWGQGTMVTVSS
13 | binds | 1.61a (VHH) VHH: QVQLVESGGGVVRPGGSLRLSCAASGFTFDNYAMSWVRQAPGKGLEWVSGITWNGGSTGYADSVKDRFTISRDNAKNSLYLQMNSLRAEDTALYYCARDKYSYAWSYDTFDIRGQGTMVTVSS
14 | binds | 1.66a (VHH) VHH: EVQLVESGGGVVRPGGSLRLSCAASGFTFDDYANSWVRQAPGKGLEWVSGITWNGGSTGYADSVKGRFTISRDNAKNSLYLQMNSLRAEDTALYYCVRDKYSYAWSYDGFDIWGQGTMVTVSS
15 | binds | 1.62a (VHH, also called Humabody 1.62a) VHH: EVQLVESGGGVVRPGGSLRLSCAASGFTFDDYAMSWVRQAPGKGLEWVSGITWNAGSTGYADSVKGRFTISRDNAKNSLYLQMNSLRAEDTALYYCVRDKYSYAWSYDDFDIWGQGTMVTVSS
16 | binds | 1.78a (VHH) VHH: EVQLVESGGGVVRPGGSLRLSCAASGFTFDDYAMSWVRQAPGKGLEWVSGITWNGGSTGYADSVKGRFTISRDNAKNSLYLQMNSLRAEDTALYYCVRDKYSYAWSYDVFDIWGQGTMVTVSS
17 | binds | 1.68a (VHH) VHH: EVQLVESGGGVVRPGGSLRLSCAASGFTFDDYAESWVRQAPGKGLEWVSGITWNGGSTGYADSVKGRFTISRDNAKNSLYLQMNSLRAEDTALYYCVRDKYSYAWSYDGFDIWGQGTMVTVSS
18 | binds | 1.59a (VHH) VHH: QVQLVESGGGVVRPGGSLRLSCAASGFTFDDYAMSWVRQAPGKGLEWVSGISWNGGSKGYADSVKDRFTISRDNAKNSLYLQMNSLRAEDTALYYCARDPYSGAWSYDAFDIWGQGTMVTVSS

Continued, binder first:

Row | Binder | binding result
19 | 1.75a (VHH) VHH: EVQLVESGGGVVRPGGSLRLSCAASGFTFDDYAMSWVRQAPGKGLEWVSGITWNQGSTGYADSVKDRFTISRDNAKNSLYLQMNSLRAEDTALYYCVRDKYSYAWSYDDFDIWGQGTMVTVSS | binds
20 | 1.73a (VHH) VHH: EVQLVESGGGVVRPGGSLRLSCAASGFTFDDYARSWVRQAPGKGLEWVSGITWNGGSTGYADSVKGRFTISRDNAKNSLYLQMNSLRAEDTALYYCVRDKYSYAWSYDGFDIWGQGTMVTVSS | binds
21 | 1.88a (VHH) VHH: EVQLVESGGGVVRPGGSLRLSCAASGFTFDDYAGSWVRQAPGKGLEWVSGITWNGGSTGYADSVKDRFTISRDNAKNSLYLQMNSLRAEDTALYYCVRDKYSYAWSYDGFDIWGQGTMVTVSS | binds
22 | 1.77a (VHH) VHH: EVQLVESGGGVVRPGGSLRLSCAASGFTFDDYAMSWVRQAPGKGLEWVSGITWNAGSTGYADSVKDRFTISRDNAKNSLYLQMNSLRAEDTALYYCVRDKYSYAWSYDDFDIWGQGTMVTVSS | binds
23 | 1.80a (VHH) VHH: EVQLVESGGGVVRPGGSLRLSCAASGFTFDDYAMSWVRQAPGKGLEWVSGITWNKGSTGYADSVKDRFTISRDNAKNSLYLQMNSLRAEDTALYYCVRDKYSYAWSYDDFDIWGQGTMVTVSS | binds
24 | 1.83a (VHH) VHH: EVQLVESGGGVVRPGGSLRLSCAASGFTFDDYATSWVRQAPGKGLEWVSGITWNGGSTGYADSVKDRFTISRDNAKNSLYLQMNSLRAEDTALYYCVRDKYSYAWSYDGFDIWGQGTMVTVSS | binds
25 | 1.85a (VHH) VHH: EVQLVESGGGVVRPGGSLRLSCAASGFTFDDYADSWVRQAPGKGLEWVSGITWNGGSTGYADSVKDRFTISRDNAKNSLYLQMNSLRAEDTALYYCVRDKYSYAWSYDGFDIWGQGTMVTVSS | binds
26 | 1.76a (VHH) VHH: EVQLVESGGGVVRPGGSLRLSCAASGFTFDDYAMSWVRQAPGKGLEWVSGITWNHGSTGYADSVKDRFTISRDNAKNSLYLQMNSLRAEDTALYYCVRDKYSYAWSYDVFDIWGQGTMVTVSS | binds
27 | 1.64a (VHH) VHH: EVQLVESGGGVVRPGGSLRLSCAASGFTFDDYAFSWVRQAPGKGLEWVSGITWNGGSTGYADSVKGRFTISRDNAKNSLYLQMNSLRAEDTALYYCVRDKYSYAWSYDGFDIWGQGTMVTVSS | binds
28 | 1.84a (VHH) VHH: EVQLVESGGGVVRPGGSLRLSCAASGFTFDDYANSWVRQAPGKGLEWVSGITWNGGSTGYADSVKDRFTISRDNAKNSLYLQMNSLRAEDTALYYCVRDKYSYAWSYDGFDIWGQGTMVTVSS | binds
29 | 1.71a (VHH) VHH: EVQLVESGGGVVRPGGSLRLSCAASGFTFDDYALSWVRQAPGKGLEWVSGITWNGGSTGYADSVKGRFTISRDNAKNSLYLQMNSLRAEDTALYYCVRDKYSYAWSYDGFDIWGQGTMVTVSS | binds
30 | 1.89a (VHH) VHH: EVQLVESGGGVVRPGGSLRLSCAASGFTFDDYAESWVRQAPGKGLEWVSGITWNGGSTGYADSVKDRFTISRDNAKNSLYLQMNSLRAEDTALYYCVRDKYSYAWSYDGFDIWGQGTMVTVSS | binds
31 | 1.82a (VHH) VHH: EVQLVESGGGVVRPGGSLRLSCAASGFTFDDYAISWVRQAPGKGLEWVSGITWNGGSTGYADSVKDRFTISRDNAKNSLYLQMNSLRAEDTALYYCVRDKYSYAWSYDGFDIWGQGTMVTVSS | binds
32 | 1.63a (VHH) VHH: EVQLVESGGGVVRPGGSLRLSCAASGFTFDDYAMSWVRQAPGKGLEWVSGITWNRGSTGYADSVKGRFTISRDNAKNSLYLQMNSLRAEDTALYYCVRDKYSYAWSYDDFDIWGQGTMVTVSS | binds
